Common to all, as to experiment: semi-native SDS-PAGE with anti-HA immunoblot
The target in assay [1] is BnGLP3.2:HA (Brassica napus).
Assay [2] concerns the target BnGLP3.1:HA (Brassica napus).
Assay [3] has as its target BnGLP12.2:HA (Brassica napus).
Assay [4] addresses BnGLP12.1:HA (Brassica napus).
Assay [5] addresses BnGLP8:HA (Brassica napus).

As usually defined, the stoichiometry N is a count of units in the complex or per binding partner. BnGLP3.2:HA (natural protein) came in with a stoichiometry N in assay [1] of 6.
Substance BnGLP3.1:HA (natural protein) yielded a stoichiometry N in assay [2] of 6.
BnGLP12.2:HA (natural protein): the stoichiometry N in assay [3] was determined as 6.
In assay [4], BnGLP12.1:HA (natural protein) registered a stoichiometry N of 6.
BnGLP8:HA (natural protein) gave a stoichiometry N in assay [5] of 6.

The record behind these values is PMC3444267.
